# Reference: patent US7994123B2, “Hybrid proteins with ErbB4 extracellular domain and neuregulin heparin-binding domain for targeting” (Wayne State University, priority 2004, dated 2011)
# B1: HBD-S-B4: prototypical fusion protein of NRG HBD, spacer and erbB4 ECD (SEQ ID NO:14) (protein)
# chain: QKMKPATGLWVWVSLLVAAGTVQPSDSQSGYKKKERGSGKKPESAAGSQSPALPPRLKEMKSQESAAGSKLVLRCETSSEYSSLRFKWFKNGNELNRKNKPQNIKIQKKPGKSELRINKASLADSGEYMCKVISKLGNDSASANITIVESNEIITGMPASTEGAYVSSESPIRISVSTEGANTSSSTSTSTTGTSGTQSVCAGTENKLSSLSDLEQQYRALRKYYENCEVVMGNLEITSIEHNRDLSFLRSVREVTGYVLVALNQFRYLPLENLRIIRGTKLYEDRYALAIFLNYRKDGNFGLQELGLKNLTEILNGGVYVDQNKFLCYADTIHWQDIVRNPWPSNLTLVSTNGSSGCGRCHKSCTGRCWGPTENHCQTLTRTVCAEQCDGRCYGPYVSDCCHRECAGGCSGPKDTDCFACMNFNDSGACVTQCPQTFVYNPTTFQLEHNFNAKYTYGAFCVKKCPHNFVVDSSSCVRACPSSKMEVEENGIKMCKPCTDICPKACDGIGTGSLMSAQTVDSSNIDKFINCTKINGNLIFLVTGIHGDPYNAIEAIDPEKLNVFRTVREITGFLNIQSWPPNMTDFSVFSNLVTIGGRVLYSGLSLLILKQQGITSLQFQSLKEISAGNIYITDNSNLCYYHTINWTTLFSTINQRIVIRDNRKAENCTAEGMVCNHLCSSDGCWGPGPDQCLSCRRFSRGRICIESCNLYDGEFREFENGSICVECDPQCEKMEDGLLTCHGPGPDNCTKCSHFKDGPNCVEKCPDGLQGANSFIFKYADPDRECHPCHPNCTQGCNGPTSHDCIYYPWTGHSTLPQHAKN
# Test system: malignant masses (carcinomas, sarcomas, gliomas and medulloblastomas)
# Assay: Anti-tumor effects in human patients
# Format: in vivo
# Text: All patients to be treated have histologically confirmed malignant masses confirmed by biopsy or cytology are entered. Malignant diseases including carcinomas, sarcomas, gliomas and medulloblastomas. […] Patients in all stages of malignant disease involving any organ system are included. Staging describes both tumor and host, including organ of origin of the tumor, histologic type, histologic grade, extent of tumor size, site of metastases and functional status of the patient. For a general classification includes the known ranges of Stage 1 (localized disease) to Stage 4 (widespread metastases), see Abraham J et al., Bethesda Handbook of Clinical Oncology, Lippincott, Williams & Wilkins, Philadelphia, Pa., 2001 (or a more recent edition). Patient history is obtained and physical examination performed along with conventional tests of cardiovascular and pulmonary function and appropriate radiologic procedures. The malignant masses are visible on x-ray or CT scan and/or are measurable with calipers. They have not been undergoing any other anticancer treatment for at least one month and have a clinical KPS of at least 50.
# HBD-S-B4 is administered intravenously in doses of 0.01-100 μg/kg intratumorally once every 2-7 days. Patient Evaluation: Assessment of response of the tumor to the therapy is made once per week during therapy and 30 days thereafter using CT or x-ray visualization. Depending on the response to treatment, side effects, and the health status of the patient, treatment is terminated or prolonged from the standard protocol given above. Tumor response criteria are those established by the WHO and RECIST (Response Evaluation Criteria in Solid Tumors) summarized below (e.g., Abraham et al., supra)
# The efficacy of the therapy in a patient population is evaluated using conventional statistical methods, including, for example, the Chi Square test or Fisher's exact test. Long-term and short term changes in measurements are evaluated separately.
molecule,measurement,setting,value
B1,"% of Patients Responding, <PR",All Patients,5.3%
same,"% of Patients Responding, CR",All Patients,59.7%
same,"% of Patients Responding, PR",All Patients,11.3%
same,"No. of patients, Response <PR",All Patients (400 treated),21
same,"No. of patients, Response CR",All Patients (400 treated),239
same,"No. of patients, Response PR",All Patients (400 treated),45
same,"% of Patients Responding, CR + PR + <PR",Brain glioma/astrocytoma,61%
same,"% of Patients Responding, CR + PR + <PR",Breast adenocarcinoma,85%
same,"% of Patients Responding, CR + PR + <PR",Gastrointestinal carcinoma,77%
same,"% of Patients Responding, CR + PR + <PR",Ovarian carcinoma,82%
same,overall response rate,all tumors,about 76%
same,patients with objective clinical responses,all tumors,Three hundred and five
same,"CBC, renal and liver functions tests after treatments","human, in vivo",do not change significantly
same,average duration of responses,"human, in vivo",24 months
same,incidence of side effects: bloody nose,"human, in vivo",1 % of total treatments
same,incidence of side effects: blurred vision,"human, in vivo",< 1 % of total treatments
same,incidence of side effects: chills,"human, in vivo",10 % of total treatments
same,incidence of side effects: cramps,"human, in vivo",< 1 % of total treatments
same,incidence of side effects: diarrhea,"human, in vivo",1 % of total treatments
same,incidence of side effects: dizziness,"human, in vivo",< 1 % of total treatments
same,incidence of side effects: fatigue,"human, in vivo",< 1 % of total treatments
same,incidence of side effects: feeling faint,"human, in vivo",< 1 % of total treatments
same,incidence of side effects: fever,"human, in vivo",10 % of total treatments
same,incidence of side effects: flushing,"human, in vivo",1 % of total treatments
same,incidence of side effects: gastritis,"human, in vivo",< 1 % of total treatments
same,incidence of side effects: headache,"human, in vivo",3 % of total treatments
same,incidence of side effects: hypertension,"human, in vivo",2 % of total treatments
same,incidence of side effects: hypotension,"human, in vivo",2 % of total treatments
same,incidence of side effects: itching/hives,"human, in vivo",1 % of total treatments
same,incidence of side effects: joint pain,"human, in vivo",2 % of total treatments
same,incidence of side effects: nausea,"human, in vivo",5 % of total treatments
same,incidence of side effects: pain,"human, in vivo",5 % of total treatments
same,incidence of side effects: rash,"human, in vivo",2 % of total treatments
same,incidence of side effects: redness on hand,"human, in vivo",< 1 % of total treatments
same,incidence of side effects: respiratory,"human, in vivo",3 % of total treatments
same,incidence of side effects: tachycardia,"human, in vivo",2 % of total treatments
same,incidence of side effects: twitching,"human, in vivo",< 1 % of total treatments
same,incidence of side effects: vomiting,"human, in vivo",2 % of total treatments
same,time at which objective remissions are evident,"human, in vivo",after four weeks of therapy
same,toxicity,"human, in vivo","mild short-lived fever, fatigue and anorexia not requiring treatment"
same,positive tumor responses,"patients with breast, ovarian and gastrointestinal tumors",77-85%
